Laboratory results taken from PMC10030575, “The IgV domain of the poliovirus receptor alone is immunosuppressive and binds to its receptors with comparable affinity” (Scientific Reports, 2023).
Read-outs that look alike come from different tables or passages of the source.

T1: recombinant mouse CD226-his (mouse, UniProt Q8K4F0 19-254)
T1 construct: mouse CD226 (DNAM1), recombinant; also called mCD226-his; mCD226; source: bought: SinoBiological (50232-M08H)
T1 sequence (looked up): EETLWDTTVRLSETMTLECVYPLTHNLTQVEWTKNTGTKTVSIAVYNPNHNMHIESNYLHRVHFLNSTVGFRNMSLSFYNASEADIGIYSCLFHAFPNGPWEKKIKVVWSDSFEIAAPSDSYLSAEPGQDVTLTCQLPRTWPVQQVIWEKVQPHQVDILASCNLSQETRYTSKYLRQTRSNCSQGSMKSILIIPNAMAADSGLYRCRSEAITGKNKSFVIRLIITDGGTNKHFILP

T2: recombinant mouse CD96-his (mouse, UniProt Q3U0X8 22-536)
T2 construct: mouse CD96 (TACTILE), recombinant; also called mCD96-his; mCD96; source: bought: Biolegend (788806)
T2 sequence (looked up): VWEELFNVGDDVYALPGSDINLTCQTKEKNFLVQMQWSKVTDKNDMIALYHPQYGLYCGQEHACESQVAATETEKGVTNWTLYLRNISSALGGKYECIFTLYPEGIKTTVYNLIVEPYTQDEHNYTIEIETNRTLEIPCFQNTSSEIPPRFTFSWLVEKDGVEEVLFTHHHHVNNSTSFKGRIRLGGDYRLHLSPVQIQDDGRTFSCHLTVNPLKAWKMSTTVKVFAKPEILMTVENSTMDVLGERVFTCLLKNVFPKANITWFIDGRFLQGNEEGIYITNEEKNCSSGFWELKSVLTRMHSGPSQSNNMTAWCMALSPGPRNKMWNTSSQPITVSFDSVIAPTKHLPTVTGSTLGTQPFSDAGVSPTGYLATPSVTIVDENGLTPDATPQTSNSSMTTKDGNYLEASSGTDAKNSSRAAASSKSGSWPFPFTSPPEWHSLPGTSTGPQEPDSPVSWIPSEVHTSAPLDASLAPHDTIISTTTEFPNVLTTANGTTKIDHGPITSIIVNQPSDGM

T3: recombinant mouse TIGIT-Fc-his (mouse, UniProt P86176 29-148)
T3 construct: mouse TIGIT (T-cell immunoglobulin and ITIM domain), recombinant; also called mTIGIT-Fc-his; mTIGIT; source: bought: Biolegend (771808)
T3 sequence (looked up): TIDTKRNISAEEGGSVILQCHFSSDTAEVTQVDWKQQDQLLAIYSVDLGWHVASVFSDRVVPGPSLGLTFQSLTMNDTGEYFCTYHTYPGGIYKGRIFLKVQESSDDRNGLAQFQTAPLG

B1: vdPVR-Fc (IgV-domain PVR-Fc) (Fc fusion, mouse, UniProt Q8K094 29-147, looked up)
chain: DIRVLVPYNSTGVLGGSTTLHCSLTSNENVTITQITWMKKDSGGSHALVAVFHPKKGPNIKEPERVKFLAAQQDLRNASLAISNLSVEDEGIYECQIATFPRGSRSTNAWLKVQARPKN
notes: murine PVR (poliovirus receptor, CD155), IgV domain of the extracellular domain, residues 29-147 of NP_081790.1; An Ig-kappa leader at the 5' end drives secretion; Migrates as a dimer (~94 kDa) without reducing agent; also called minimal murine PVR-Fc fusion construct; source: Expi293F cells, secreted, purified (protein A); not shown: Fc (human IgG1; P01857 residues 100-330; joined by linker …)

Key:
Assay in all cases: SPR; Biacore T200; His-tagged receptors captured on an anti-histidine antibody CM5 chip (1-5 ug/mL, 30 uL/min); five concentrations (1:2 serial dilutions) of the PVR-Fc constructs flowed over, single-cycle kinetics; HBS-EP (20 mM HEPES pH 7.4, 150 mM NaCl, 0.005% Tween-20, 3.4 mM EDTA); 1:1 Langmuir model
[1] = molecular target: T1, recombinant mouse CD226-his
[2] = molecular target: T2, recombinant mouse CD96-his
[3] = molecular target: T3, recombinant mouse TIGIT-Fc-his

Molecule	Kd [1] [nM]	koff [1] [s⁻¹]	kon [1] [M⁻¹ s⁻¹]	Kd [2] [nM]	koff [2] [s⁻¹]	kon [2] [M⁻¹ s⁻¹]	Kd [3] [nM]	kon [3] [M⁻¹ s⁻¹]	Kd ([1]; both partners purified) [nM]	koff ([1]; both partners purified) [s⁻¹]	kon ([1]; both partners purified) [M⁻¹ s⁻¹]	Kd ([2]; both partners purified) [nM]	koff ([2]; both partners purified) [s⁻¹]	kon ([2]; both partners purified) [M⁻¹ s⁻¹]	Kd ([3]; both partners purified) [nM]	koff ([3]; both partners purified) [s⁻¹]	kon ([3]; both partners purified) [M⁻¹ s⁻¹]
full length PVR-Fc (full-length mouse PVR ECD-Fc) (Fc fusion)	0.83	0.00651	3.2e+06	4.07	0.00455	1.17e+06	2.26	2.25e+07									
B1									0.69	0.00184	2.67e+06	1.72	0.00286	3.52e+06	2.25	0.0656	2.92e+07
